In patent publication US20050287648A1 (UNIVERSITY OF ROCHESTER, published 2005):

Biological target: APOBEC-1 (apolipoprotein B mRNA editing catalytic subunit 1) (Homo sapiens (Human), UniProt P41238 1-236)
Experiment: yeast two-hybrid (MatchMaker; his- selection and lacZ filter lift), negative control
From the text: The MatchMaker system includes specific protocols for setting up the yeast two hybrid selection, for verifying true His+, LacZ+ transformants and ruling out false positives. Both the selection scheme and verification of true positives follow the manufacturer's recommendations using cDNAs encoding APOBEC-and ACF (FIG. 9).

APOBEC-1 (apolipoprotein B mRNA editing catalytic subunit 1), sequence (P41238 whole entry M80I): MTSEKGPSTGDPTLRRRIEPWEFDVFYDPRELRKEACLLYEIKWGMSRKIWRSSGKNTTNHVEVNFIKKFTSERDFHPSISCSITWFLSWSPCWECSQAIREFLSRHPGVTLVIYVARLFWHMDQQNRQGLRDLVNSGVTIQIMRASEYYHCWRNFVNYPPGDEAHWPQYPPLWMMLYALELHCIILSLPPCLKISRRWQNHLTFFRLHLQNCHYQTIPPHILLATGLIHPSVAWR

- binding result: no binding
B1: lamin C (other, UniProt P02545-2 66-230, looked up)
chain: SEEVVSREVSGIKAAYEAELGDARKTLDSVAKERARLQLELSKVREEFKELKARNTKKEGDLIAAQARLKDLEALLNSKEAALSTALSEKRTLEGELHDLRGQVAKLEAALGEAKKQLQDEMLRRVDAENRLQTMKEELDFQKNIYSEELRETKRRHETRLVEID
notes: Negative-control two-hybrid fusion
